B1: Catenin beta-1 (Homo sapiens), P35222 (parent)
chain: MATQADLMELDMAMEPDRKAAVSHWQQQSYLDSGIHSGATTTAPSLSGKGNPEEEDVDTSQVLYEWEQGFSQSFTQEQVADIDGQYAMTRAQRVRAAMFPETLDEGMQIPSTQFDAAHPTNVQRLAEPSQMLKHAVVNLINYQDDAELATRAIPELTKLLNDEDQVVVNKAAVMVHQLSKKEASRHAIMRSPQMVSAIVRTMQNTNDVETARCTAGTLHNLSHHREGLLAIFKSGGIPALVKMLGSPVDSVLFYAITTLHNLLLHQEGAKMAVRLAGGLQKMVALLNKTNVKFLAITTDCLQILAYGNQESKLIILASGGPQALVNIMRTYTYEKLLWTTSRVLKVLSVCSSNKPAIVEAGGMQALGLHLTDPSQRLVQNCLWTLRNLSDAATKQEGMEGLLGTLVQLLGSDDINVVTCAAGILSNLTCNNYKNKMMVCQVGGIEALVRTVLRAGDREDITEPAICALRHLTSRHQEAEMAQNAVRLHYGLPVVVKLLHPPSHWPLIKATVGLIRNLALCPANHAPLREQGAIPRLVQLLVRAHQDTQRRTSMGGTQQQFVEGVRMEEIVEGCTGALHILARDVHNRIVIRGLNTIPLFVQLLYSPIENIQRVAAGVLCELAQDKEAAEAIEAEGATAPLTELLHSRNEGVATYAAAVLFRMSEDKPQDYKKRLSVELTSSLFRTEPMAWNETADLGLDIGAQGEPLGYRQDDPSYRSFHSGGYGQDALGMDPMMEHEMGGHHPGADYPVDGLPDLGHAQDLMDGLPPGDSNQLAWFDTDL

Variants of B1 are the subject of one assay. The settings on record: with andr_human AR.
Turning to K345A, the “effect of a mutation on the interaction” value was “disrupting interaction strength”. Y306A;K345A;W383A: the “effect of a mutation on the interaction” value is “disrupting interaction strength”.

As to W383A, the “effect of a mutation on the interaction” value is listed as “disrupting interaction strength”. On the same count and under the same terms, next, Y306A: “disrupting interaction strength”.

The variants in another assay derive from B1. The conditions noted are these: with NR5A2, O00482-1.
Chain of NR5A2, O00482-1 (O00482 whole entry): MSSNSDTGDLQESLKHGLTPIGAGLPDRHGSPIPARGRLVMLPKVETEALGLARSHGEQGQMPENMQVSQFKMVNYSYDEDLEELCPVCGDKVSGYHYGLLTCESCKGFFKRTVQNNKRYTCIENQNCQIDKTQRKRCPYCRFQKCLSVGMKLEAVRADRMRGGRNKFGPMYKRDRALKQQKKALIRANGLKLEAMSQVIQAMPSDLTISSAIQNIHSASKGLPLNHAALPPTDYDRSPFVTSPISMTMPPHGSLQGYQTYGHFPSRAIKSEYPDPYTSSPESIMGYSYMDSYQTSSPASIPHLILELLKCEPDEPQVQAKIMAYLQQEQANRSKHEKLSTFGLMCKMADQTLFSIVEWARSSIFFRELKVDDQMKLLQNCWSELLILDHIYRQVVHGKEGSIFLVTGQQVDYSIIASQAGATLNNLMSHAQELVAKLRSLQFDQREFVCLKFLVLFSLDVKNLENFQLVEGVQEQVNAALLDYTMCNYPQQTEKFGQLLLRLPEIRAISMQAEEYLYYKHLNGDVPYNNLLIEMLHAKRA
On to Y306A;K345A;W383A, for which the “effect of a mutation on the interaction” value is “disrupting interaction strength”.

The record behind these values is IntAct's records for PubMed 22187462.
